Data as given in patent US20240076389A1 (NATIONAL RESEARCH COUNCIL OF CANADA, published 2024).
Values belong to the binder of their own block, whether it stands above or below them.

Experiments:
[1] = molecular target: T1, human AXL expressed on the cell surface of tumor cell lines (human, UniProt P30530 26-894); experiment: cell-based or functional assay
T1 sequence (looked up): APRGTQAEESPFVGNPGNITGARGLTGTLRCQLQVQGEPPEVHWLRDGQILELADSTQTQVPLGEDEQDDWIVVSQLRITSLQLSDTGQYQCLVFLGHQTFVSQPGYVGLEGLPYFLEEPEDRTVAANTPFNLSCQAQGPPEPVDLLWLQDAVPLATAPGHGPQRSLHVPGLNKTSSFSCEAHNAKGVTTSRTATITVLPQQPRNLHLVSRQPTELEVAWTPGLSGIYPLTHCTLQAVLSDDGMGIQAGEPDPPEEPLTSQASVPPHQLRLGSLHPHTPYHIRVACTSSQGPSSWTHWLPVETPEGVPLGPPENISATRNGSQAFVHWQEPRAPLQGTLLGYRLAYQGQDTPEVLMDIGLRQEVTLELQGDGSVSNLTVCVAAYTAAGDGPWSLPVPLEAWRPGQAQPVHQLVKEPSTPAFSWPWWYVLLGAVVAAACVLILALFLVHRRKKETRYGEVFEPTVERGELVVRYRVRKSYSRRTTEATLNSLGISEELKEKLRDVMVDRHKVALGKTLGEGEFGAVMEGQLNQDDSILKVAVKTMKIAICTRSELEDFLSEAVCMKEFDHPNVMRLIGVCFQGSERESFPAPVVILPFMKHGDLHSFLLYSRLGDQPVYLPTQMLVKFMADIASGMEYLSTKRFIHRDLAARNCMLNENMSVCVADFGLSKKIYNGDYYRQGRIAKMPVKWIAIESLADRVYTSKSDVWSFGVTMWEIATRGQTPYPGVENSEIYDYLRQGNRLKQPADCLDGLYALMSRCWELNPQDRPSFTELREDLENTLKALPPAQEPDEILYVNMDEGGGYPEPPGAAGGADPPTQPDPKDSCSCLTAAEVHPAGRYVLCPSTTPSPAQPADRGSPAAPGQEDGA

[2] = molecular target: T2, recombinant human AXL extracellular domain, C-terminally His8-tagged (rhAXL-ECD) (human, UniProt P30530 26-451); experiment: SPR, AXL ECD immobilized, VHH monomer flowed, single-cycle kinetics
T2 construct: Made in CHO cells; also called (rh)AXL-ECD His8; human AXL ECD
T2 sequence: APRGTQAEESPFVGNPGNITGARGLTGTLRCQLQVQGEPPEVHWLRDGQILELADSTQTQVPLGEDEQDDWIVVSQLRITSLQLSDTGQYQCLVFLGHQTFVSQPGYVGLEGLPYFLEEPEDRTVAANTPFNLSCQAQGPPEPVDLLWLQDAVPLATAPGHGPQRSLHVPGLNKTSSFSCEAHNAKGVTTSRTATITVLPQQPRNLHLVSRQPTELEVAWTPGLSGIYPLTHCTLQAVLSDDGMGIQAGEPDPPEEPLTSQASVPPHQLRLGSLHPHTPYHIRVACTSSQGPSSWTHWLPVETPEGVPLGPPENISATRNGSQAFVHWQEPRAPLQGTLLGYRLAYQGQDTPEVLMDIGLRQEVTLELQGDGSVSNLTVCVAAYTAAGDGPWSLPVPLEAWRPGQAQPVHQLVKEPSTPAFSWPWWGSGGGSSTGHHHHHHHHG
Procedure: (§1) For VH Hs and VHH-Fcs, binding to human and cynomolgus AXL ECD was assessed using either a Biacore T200 instrument or a Biacore 3000 instrument. Either human AXL ECD or anti-human Fc antibody was immobilized on a research-grade CM5 series S sensor chip (T200, rhAXL ECD) or a C1 sensor chip (3000, anti-human Fc) using amine coupling in acetate buffer. VHH-Fcs were captured on anti-human Fc surfaces. Either monomeric VHHs (for rhAXL ECD surfaces) or human and cyno AXL ECD (for VHH-Fc surfaces) were flowed over the surfaces at different concentration ranges. Running buffers were HBS-EP (3000) and HBS-EP+(T200). Flow rates were 10-40 ul/min. All binding studies were performed at 25° C. Surfaces were regenerated using 10 mM glycine, pH 1.5.

[3] = molecular target: T2, recombinant human AXL extracellular …; experiment: SPR Biacore T200, mAb captured on anti-Fc, AXL ECD flowed, single-cycle kinetics
Procedure: (§2) Surface plasmon resonance. For murine mAbs, binding to human and cynomolgus AXL ECD was assessed using a Biacore T200 instrument. Briefly, either anti-mouse or anti-human Fc antibody was immobilized on a research-grade CM5 series S sensor chip using amine coupling in acetate buffer. Murine or recombinant chimeric murine-human mAbs (mouse VH/VL; human constant regions) were captured, then recombinant human or cyno AXL ECD was flowed over the surface at different concentration ranges (0.1-500 nM) depending on the antibody. The running buffer was PBS/Tween-20 and the flow rate 100 uL/min. All binding studies were performed at 25° C. Surfaces were regenerated using 10 mM glycine, pH 1.5.

[4] = molecular target: T3, recombinant cynomolgus AXL extracellular domain (cynomolgus); experiment: as above
T3 construct: range 1-449; also called Cyno AXL; cyno AXL ECD
Procedure: as §2

[5] = molecular target: T2, recombinant human AXL extracellular …; experiment: SPR, AXL ECD immobilized, VHH monomer flowed, multi-cycle kinetics
Procedure: as §1

B3: NRC-sdAb001 (VHH monomer) (VHH)
VHH: QVKLEESGGGLVQAGGSLRLSCTASASISSFDIMGWYRQAPGKQRELVAAITTLDIANYRDSVKGRFTISRDNAKNTVYLQMDSLKPEDTARYHCAAFQSDQNYWGQGTQVTVSS
notes: Llama VHH made as 6xHis- and Myc-tagged monomer in E. coli; not shown: 6xHis and Myc tags
Kd [2]: 4 nM
koff [2]: 0.037 s⁻¹
kon [2]: 8.5e+06 M⁻¹ s⁻¹

B5: hFC-F111-3C8 (antibody, human IgG1, kappa, V domains shown)
VH: QVQLQQPGAELGKPGTSVKLSCKASGYTFTSYWMHWVKRVPGQGLEWIGNINPNSTSADYNEKFKRKATLTVDKSSSTAYMQLSTLTSEDSAVYYCTRPLMGPYWYFDVWGTGTTVTVSS
VL: QIVLTQSPAIMSASPGEKVTISCSASSSVSYMYWYQQKPGSSPKPWIYRTSNLASGVPARFSGSGSGTSYSLTISSMEAEDAATYYCQQYHNYPPTFGGGTKLEIKR
notes: Chimeric mAb, human IgG1 / human kappa constant regions; also called mAb F111-3C8; chimeric F111-3C8
Kd [3]: 12 nM
koff [3]: 0.001 s⁻¹
kon [3]: 86000 M⁻¹ s⁻¹
Kd [4]: 18 nM
koff [4]: 0.0011 s⁻¹
kon [4]: 60000 M⁻¹ s⁻¹

B6: NRC-sdAb005 (VHH monomer) (VHH)
VHH: QVKLEESGGGLAQAGGSLRLSCAASGSISSINTIGWFRQAPGKQRELVAASDSGANRNYADSVKGRFTISRDNAKNTVYLQMNNLKPEDTAIYYCRAWGTGTISTMYWGQGTQVTVSS
notes: Llama VHH monomer; not shown: 6xHis and Myc tags
Kd [5]: 58 nM
koff [5]: 0.0097 s⁻¹
kon [5]: 170000 M⁻¹ s⁻¹

B7: NRC-sdAb003 (VHH monomer) (VHH)
VHH: QVQLVESGGGLVQAGGSLRLSCAASGVTLDYTAIGWFRQAPGKERELVAAITSGGNTDYAESAKGRFRISRDNSKNTIYLQMNSLKPEDTGVYYCAARRGGARGEYDYWDQGTQVTVSS
notes: as for B6
Kd [2]: 955 nM
koff [2]: 0.0054 s⁻¹
kon [2]: 8500 M⁻¹ s⁻¹

B10: NRC-sdAb006 (VHH monomer) (VHH)
VHH: QVKLEESGGGLVQAGASLRLSCVASESIFGFNTMGWYRQAPGNERELVASISNSKRTMYADSVKGRFTISRDNAKNTVNLQMNNLKPEDTAVYYCRAWGIITSATVYWGQGTQVTVSS
notes: as for B6
Kd [5]: 19 nM
koff [5]: 0.0045 s⁻¹
kon [5]: 240000 M⁻¹ s⁻¹

Other lines, results leading:

IC50 of growth inhibition (CellTiterGlo, 5 days) of NCI-H292 cells, -Gas6 [1]: ~1 nM
B1: hFc-F111-5E9-VC-MMAE (antibody, human IgG1, kappa, V domains shown)
VH: QIQLVQSGPELKKPGETVKISCKASGYTFTKYGMNWVKQAPGKGLKWMGWINTYTGEPTYADDFKGRFAFSLETSASTAYLQINNLTTEDMVTYFCAKGGYYSNPIYPMDYWGQGTSVTVSS
VL: DIQMTQTTSSLSASLGDRVTISCRASQDINNYLNWYQQKPDGTVKLLIYYISRLHSGVPSRFSGSGSGTDYSLTISNLELEDVATYFCQQGNTLPFTFGSGTKLEIKR
modifications: VC-MMAE conjugate; attachment sites not given

IC50 of growth inhibition (CellTiterGlo, 5 days) of NCI-H292 cells, -Gas6 [1]: 0.015 nM
IC50 of growth inhibition of NCI-H292 cells, +Gas6 (2 µg/mL) [1]: 0.013 nM
B2: mIgG-F149-4G4-DM1 (antibody, V domains shown)
VH: QIQLVQSGPELKKPGETVKISCKTSGYTFTYYGINWVKQAPGKGLEWMGWINTYLGEPTYADDFKGRFAFSLETSASTAYLQINNLRDEDMATYFCTRGTMSYSFDYWGQGTALTVSS
VL: QNVLTQSPAIMSASPGEEVTMTCRASSSVSSSYLHWYQQKSGASPKLWIYSTSKLASGVPARFSGSGSGTSYSLTISSVEAEDAATYYCHQYSGDPLTFGSGTKLEVK
modifications: DM1 through SMCC linker on lysine residues of the antibody; sites not given

IC50 of growth inhibition (CellTiterGlo, 5 days) of NCI-H292 cells, -Gas6 [1]: 0.327 nM
IC50 of growth inhibition of NCI-H292 cells, +Gas6 (2 µg/mL) [1]: 3.9 nM
B4: mIgG-F155-3C7-DM1 (antibody, V domains shown)
VH: QVQLQQPGTELVKPGASVKLSCKASGYIFTNFWINWVKQRPGQGLEWIGNIFPGSNSSNYNEKFKNKATLTVDKSSSTAYMHLSSLTSEDSAVYYCVRDYYGGSPDYWGQGTTLTVSS
VL: DIVMSQSPSSLAVSAGEKVTMSCKSSQSLLNSKTRKNYLAWYQQKPGQSPKLLIYWASTRESGVPARFTGSGSGTDFTLTISSVQAEDLAIYYCKHSYNLWTFGGGTKLEIR
modifications: DM1 through SMCC linker on lysine residues of the antibody; sites not given

IC50 of growth inhibition (CellTiterGlo, 5 days) of NCI-H292 cells, -Gas6 [1]: 0.014 nM
IC50 of growth inhibition of NCI-H292 cells, +Gas6 (2 µg/mL) [1]: 0.098 nM
B8: hFc-F107-7H5-DM1 (antibody, human IgG1, kappa, V domains shown)
VH: QVQLQQPGAELVKPGASVKLSCKASGYTFTSYWINWVKQRPGQGLEWIGNIYPDSSSTNYNEKFKSKATLTVDKSSTTAYIQFSSLTSEDSAVYYCTRDTYGGSPDYWGQGTTLTVSS
VL: DIVMSQSPSSLAVSAGEKVTMSCKSSQSLLNSRTRKIYLAWYQQKPGQSPKLLIYWASTRQSGVPDRFTGSGSGTDFTLTISSVQAEDLAVYYCKQSYNLWTFGGGTKLEIKR
modifications: DM1 through SMCC linker on lysine residues; sites not given

IC50 of growth inhibition (CellTiterGlo, 5 days) of NCI-H292 cells, -Gas6 [1]: 0.011 nM
IC50 of growth inhibition of NCI-H292 cells, +Gas6 (2 µg/mL) [1]: 0.296 nM
B9: hFc-F107-8D12-DM1 (antibody, human IgG1, kappa, V domains shown)
VH: QVQLQQPGAELVKPGASVQLSCKASGYTFISFWINWVKQRPGQGLEWMGNIFPGSSSTNYNEKFKSKATLTVDKSSSTAYMQLSSLTSEDSAVYFCARDYYGGSPDYWGQGTTLTVSS
VL: DIVMSQSPSSLAVSAGERVTMSCKSSQSLLNTRTRKNYLAWYQQKPGQSPKLLIYWASTRESGVPDRFTGSGSGTDFTLTISSVQAEDLAVYYCKQSYNLWTFGGGTKLEIKR
modifications: DM1 through SMCC linker on lysine residues; sites not given
